# Test results as given in publication doi:10.1101/2025.07.08.663703, “Recruitment of Mre11 to recombination sites during meiosis” (bioRxiv, 2025).
# Biological target: T1, yeast Smt3 (Smt3 6xHis) (yeast, UniProt Q12306 1-101 = SUMO)
# T1 construct: Smt3 (SUMO), yeast; Uniformly 13C,15N labelled for the NMR experiments; also called SUMO; U-[13C,15N]; Smt3; source: E. coli BL21 (DE3)pLysS, purified (Ni-NTA)
# Assay: ITC; 2 mM peptide in the syringe, 150 μM or 300 μM Smt3 in the cell; 20 mM NaPi 100 mM NaCl pH 7.5, 10% DMSO, 25°C; single binding site model
# Conditions: both partners purified
# T1 sequence (Q12306 whole entry): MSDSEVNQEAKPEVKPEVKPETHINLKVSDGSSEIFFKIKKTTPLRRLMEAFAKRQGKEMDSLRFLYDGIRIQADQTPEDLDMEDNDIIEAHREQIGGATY
binder,measurement,value
"ENDIIMVSTDE [synthetic Mre11-SIM3 peptide, wild type]",Kd,20 ± 10 µM
